These results are taken from patent US20230034906A1 (TRINOMAB BIOTECH, published 2023).

The target in assay [1] is T1, HCMV gB glycoprotein of standard strain Towne (gB_Towne strain) (human cytomegalovirus, strain Towne, UniProt F5HB53 25-700).
T1 construct: also called antigen protein gB0049
Description: SPR (Biacore), antibody captured by anti-human IgG (Fc) on CM5 chip, gB in solution.

In assay [2] the target is T2, homologous sequence of gB glycoprotein of 56 virus strains (gB_Con. Strain) (human cytomegalovirus (homologous …, UniProt P06473 25-699)).
T2 construct: C-terminal tags are part of the entry
T2 chain: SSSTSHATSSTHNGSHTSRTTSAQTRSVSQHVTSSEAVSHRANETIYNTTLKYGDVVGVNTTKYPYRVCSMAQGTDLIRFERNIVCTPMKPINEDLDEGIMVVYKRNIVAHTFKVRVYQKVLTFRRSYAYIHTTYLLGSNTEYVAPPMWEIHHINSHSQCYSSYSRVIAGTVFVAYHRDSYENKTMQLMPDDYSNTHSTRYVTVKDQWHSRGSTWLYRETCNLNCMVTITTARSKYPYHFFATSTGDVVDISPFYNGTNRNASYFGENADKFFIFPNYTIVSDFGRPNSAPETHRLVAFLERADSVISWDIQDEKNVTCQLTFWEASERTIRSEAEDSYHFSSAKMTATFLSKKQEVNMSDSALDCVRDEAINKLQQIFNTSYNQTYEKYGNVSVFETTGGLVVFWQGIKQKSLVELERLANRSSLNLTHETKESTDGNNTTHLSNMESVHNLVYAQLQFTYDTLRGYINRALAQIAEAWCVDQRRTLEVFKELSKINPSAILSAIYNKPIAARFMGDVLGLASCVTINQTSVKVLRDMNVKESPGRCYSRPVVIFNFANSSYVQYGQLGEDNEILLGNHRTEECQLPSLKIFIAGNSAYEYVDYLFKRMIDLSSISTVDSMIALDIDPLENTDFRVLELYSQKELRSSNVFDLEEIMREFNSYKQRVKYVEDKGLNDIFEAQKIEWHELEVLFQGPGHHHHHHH
Description: ELISA, HEK293 culture supernatant on gB. On the technique in general: An ELISA detects its analyte on a solid surface through an enzyme-linked reagent.

Assay [3] addresses gB glycoprotein of HCMV standard strain Towne, on the virus (human cytomegalovirus, strain Towne, UniProt P13201 23-907). Description: cell-based or functional assay.
Assay [4] has as its target T3, gB_Towne protein with N383 mutated into glutamine (human cytomegalovirus, strain Towne, UniProt F5HB53 25-700).
T3 chain: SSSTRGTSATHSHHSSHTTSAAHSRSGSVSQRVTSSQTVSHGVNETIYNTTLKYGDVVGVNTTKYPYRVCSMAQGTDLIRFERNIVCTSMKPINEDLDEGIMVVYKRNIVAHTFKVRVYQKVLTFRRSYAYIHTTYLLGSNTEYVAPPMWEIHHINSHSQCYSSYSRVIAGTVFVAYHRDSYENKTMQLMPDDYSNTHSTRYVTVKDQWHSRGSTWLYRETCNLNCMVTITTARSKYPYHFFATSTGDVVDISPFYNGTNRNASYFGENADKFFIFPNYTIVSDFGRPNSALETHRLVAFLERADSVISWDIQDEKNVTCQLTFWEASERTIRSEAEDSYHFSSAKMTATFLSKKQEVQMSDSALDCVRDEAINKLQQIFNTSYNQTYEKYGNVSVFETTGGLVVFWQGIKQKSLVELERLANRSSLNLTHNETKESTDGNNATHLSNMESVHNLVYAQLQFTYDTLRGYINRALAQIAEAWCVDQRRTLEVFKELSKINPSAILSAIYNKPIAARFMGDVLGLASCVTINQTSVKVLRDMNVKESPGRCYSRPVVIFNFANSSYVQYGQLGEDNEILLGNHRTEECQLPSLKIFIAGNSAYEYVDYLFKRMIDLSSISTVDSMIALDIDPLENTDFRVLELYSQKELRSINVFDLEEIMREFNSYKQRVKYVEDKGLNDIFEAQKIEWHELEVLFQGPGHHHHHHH
In words: indirect ELISA, antibody titrated on gB glycoprotein mutant.

Chain of gB glycoprotein of HCMV standard strain Towne, on the virus (P13201 23-907 limits assumed): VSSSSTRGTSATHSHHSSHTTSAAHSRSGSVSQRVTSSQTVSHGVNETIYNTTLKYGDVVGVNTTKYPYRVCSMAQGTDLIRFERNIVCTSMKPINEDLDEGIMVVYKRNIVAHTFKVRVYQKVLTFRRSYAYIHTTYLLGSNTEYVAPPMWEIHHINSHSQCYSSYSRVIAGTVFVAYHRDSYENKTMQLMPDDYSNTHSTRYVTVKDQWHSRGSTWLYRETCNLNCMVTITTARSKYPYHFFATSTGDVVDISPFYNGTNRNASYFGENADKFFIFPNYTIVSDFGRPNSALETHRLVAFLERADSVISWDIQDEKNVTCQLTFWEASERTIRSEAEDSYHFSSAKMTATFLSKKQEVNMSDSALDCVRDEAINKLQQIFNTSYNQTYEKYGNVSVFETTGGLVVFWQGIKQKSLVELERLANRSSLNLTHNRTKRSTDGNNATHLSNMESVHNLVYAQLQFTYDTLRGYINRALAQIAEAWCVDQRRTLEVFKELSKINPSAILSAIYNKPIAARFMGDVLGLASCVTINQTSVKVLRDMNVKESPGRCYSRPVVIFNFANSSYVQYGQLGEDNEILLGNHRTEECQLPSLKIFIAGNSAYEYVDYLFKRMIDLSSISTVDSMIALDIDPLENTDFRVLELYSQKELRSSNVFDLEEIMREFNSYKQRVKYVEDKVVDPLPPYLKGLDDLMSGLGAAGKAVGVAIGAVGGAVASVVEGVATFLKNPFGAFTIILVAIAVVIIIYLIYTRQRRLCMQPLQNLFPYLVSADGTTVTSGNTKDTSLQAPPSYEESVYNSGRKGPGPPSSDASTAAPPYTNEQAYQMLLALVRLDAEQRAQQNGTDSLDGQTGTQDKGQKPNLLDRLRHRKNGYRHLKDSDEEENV

B1: TRN1018 (antibody, V domains shown)
VH: QVQLVQSGGGVVQPGRSLRLSCAASGFTFSNHGIHWVRQAPGKGLEWVAVISSDGTDTRDADSVRGRFTISRDNSRNTVYLDMNSLRAEDTAVYYCARDGRCGDERCYSGLPDVWGRGTRVSVSS
VL: EIVLTQSPATLSLSPGERATLSCRASQSVGGYLAWYQQKVGQAPRLLIYDASNRATGIPARFSGSGSGTDFTLTISSLEPEDFAVYYCQQRSNWPPLTFGGGTKVEIKR
notes: Fully human antibody; kappa light chain
One may read the Kd as a measure of binding affinity in units of concentration. A lower Kd goes with tighter binding. Take B1: the Kd in assay [1] is 27.9 nM. In addition, the binding result in assay [2] is given as “binds”.

B2: TRN1020 (antibody, V domains shown)
VH: EVQLVESGGGLAQPGGSLRLSCEASGFSFSTYAMSWVRQAPGKGLEWVAAVSGRGTSTFYLDSVKGRFTVSRDNSRTTVFLQMNSLKVEDTAFYYCAKDSYVGGSFDWLPRPDYFDHWGRGVLVTVSS
VL: QSVLTQPPSLSATPGQTVTISCSGSNSNIGKNYVSWYQQLPGAAPKLLLYNNNLRPSGIPARFSGSKSGTSATLGITGLQAGDEATYSCATWDKTLNFWVFGGGTKVTVLG
notes: Fully human antibody; lambda light chain
The molecule B2 displayed a Kd in assay [1] of 0.6 nM. The “EC50 of neutralizing Towne virus infection in primary HUVEC cells” value in assay [3] came to 0.041 µg/mL. Besides, the binding result in assay [2] was “binds”.

B3: TRN1017 (antibody, V domains shown)
VH: QVLLVQSGGGLVQPGGSLRLACETSGFTFRHYWMHWVRQAPGKGLVWLSSIHGSGTTTRYADSVKGRFTISRDNAKNILFLQINSPRPEDTATYYCVRDDYTSGYNWGQGAFVTVSS
VL: QSALTQPASVSGSRGQSITIPCTGSRSDVGGYNYVSWYQQRPGKAPKLILYDVSHRPSGISDRFSGSKLGDTASLTISGLRDEDEADYYCSSYTTKSTLYVFGTGTTVSVLG
notes: lambda light chain; expressed in HEK293 cells
For B3, in assay [4], the binding result was “binds”. Also, the “EC50 of neutralizing Towne virus infection in primary HUVEC cells” value in assay [3] worked out at 0.089 µg/mL.
